Laboratory results taken from patent publication US20220056101A1 (published 2022).
Substitutions are numbered along the chain they refer to.

Key:
[1] = target: T1, Epstein-Barr virus latent membrane protein 2 (LMP2) peptide on HLA-A11 (human); experiment: killing
T1 peptide: SSCSSCPLSK

[2] = target: T2, Epstein-Barr virus latent membrane protein 2 (LMP2) peptide on HLA-A24 (human); experiment: killing
T2 peptide: SSCSSCPLSK

B1: TCR-NPC-A11-003 (TCR, V domains shown)
Valpha: GIQVEQSPPDLILQEGANSTLRCNFSDSVNNLQWFHQNPWGQLINLFYIPSGTKQNGRLSATTVATERYSLLYISSSQTTDSGVYFCAVVNNNDMRFGAGTRLTVKP
Vbeta: DTEVTQTPKHLVMGMTNKKSLKCEQHMGHRAMYWYKQKAKKPPELMFVYSYEKLSINESVPSRFSPECPNSSLLNLHLHALQPEDSALYLCASSPGRWYEQFFGPGTRLTVL
- binding result [1]: recognises
- binding result [2]: no recognition

B2: TCR-NPC-A11-125 (TCR, V domains shown)
Valpha: B1 Valpha with V90L
Vbeta: B1 Vbeta with P95Q, Q101A, P105Q, L112V
- binding result [1]: recognises
- binding result [2]: no recognition
